# From patent publication US20240301033A1 (published 2024)
# Legend:
# [1] = biological target: T1, cynomolgus monkey CD8A on primary cynomolgus CD8+ T cells (cynomolgus monkey, UniProt P01732 23-235 (human entry)); assay: flow cytometry, cyno CD8+ T cells, 0.2 uM
# T1 construct: also called Cyno CD8alpha
# Procedure: (§1) Binding of the 190 ELISA hits to human and cynomologous monkey primary CD8 T cells was assessed by flow cytometry. The FN3 domain molecules were diluted to 2 μM and 0.2 μM in PBS and incubated with human or cynomologous monkey CD8+ T cells in 96-well format. After 1 hour at 4° C., the cells were washed once with PBS and then resuspended with an anti-FN3 domain antibody (PAB25) solution. Following this incubation, the cells were washed twice with PBS and a PE conjugated secondary antibody and a viability dye were added. Finally, cells were washed and resuspended in PBS for flow cytometric analysis using a BD Canto Instrument. Cells were gating on live cells and median fluorescence intensity of the bound Centyrins (PE channel) was calculated using Cytobank software.
# [2] = biological target: T1, cynomolgus monkey CD8A on primary …; assay: flow cytometry, cyno CD8+ T cells, 2 uM
# Procedure: as §1
# [3] = biological target: T2, human CD8 alpha (CD8A) on primary human CD8+ T cells (human, UniProt P01732 22-235); assay: flow cytometry, human CD8+ T cells, 0.2 uM
# T2 construct: whole, on cells
# Procedure: as §1
# [4] = biological target: T2, human CD8 alpha (CD8A) on primary human …; assay: flow cytometry, human CD8+ T cells, 2 uM
# Procedure: as §1
# T1 sequence (P01732 other isoform, or with tags, fused parts or gaps limits assumed): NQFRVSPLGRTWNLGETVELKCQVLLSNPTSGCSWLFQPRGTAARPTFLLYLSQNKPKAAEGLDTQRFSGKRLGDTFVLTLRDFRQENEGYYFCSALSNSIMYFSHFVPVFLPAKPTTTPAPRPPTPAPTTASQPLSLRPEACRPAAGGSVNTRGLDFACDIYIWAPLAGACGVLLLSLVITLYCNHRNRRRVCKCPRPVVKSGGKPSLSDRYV
# T2 sequence (P01732 22-235): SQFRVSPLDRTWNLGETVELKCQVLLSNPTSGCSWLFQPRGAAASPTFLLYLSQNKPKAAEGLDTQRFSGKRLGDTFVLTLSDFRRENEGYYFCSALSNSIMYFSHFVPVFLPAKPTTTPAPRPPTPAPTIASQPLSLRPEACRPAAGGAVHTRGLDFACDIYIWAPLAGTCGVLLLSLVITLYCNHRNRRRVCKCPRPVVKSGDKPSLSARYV
binder,measurement,setting,value
"Tencon25-His (designed binder, not shown: small tags and cut ends, kd not given) LPAPKNLVVSEVTEDSARLSWTAPDAAFDSFLIQYQESEKVGEAIVLTVPGSERSYDLTGLKPGTEYTVSIYGVKGGHRSNPLSAIFTT",Cyno T-cell Binding 0.2 uM (MFI),[1],336 MFI
same,Cyno T-cell Binding 2 uM (MFI),[2],337 MFI
same,Human T-cell Binding 0.2 uM (MFI),[3],219 MFI
same,Human T-cell Binding 2 uM (MFI),[4],341 MFI
